Results on 7 molecules are retold here after patent US20100011462A1, “FLAVIN MONOOXYGENASES AND TRANSCRIPTION FACTORS INVOLVED IN GLUCOSINOLATE BIOSYNTHESIS” (University of Copenhagen, priority 2006, published 2010).

The target of one assay is T1, At1g65860 (Arabidopsis thaliana, UniProt Q9SS04).
T1 construct: (AT1G65860) mRNA, complete cds; made in house; host or cells: E. coli TOP10, arabinose-induced pBAD-TOPO; crude spheroplast preparation, 50 ug total protein
T1 sequence (Q9SS04 1-459): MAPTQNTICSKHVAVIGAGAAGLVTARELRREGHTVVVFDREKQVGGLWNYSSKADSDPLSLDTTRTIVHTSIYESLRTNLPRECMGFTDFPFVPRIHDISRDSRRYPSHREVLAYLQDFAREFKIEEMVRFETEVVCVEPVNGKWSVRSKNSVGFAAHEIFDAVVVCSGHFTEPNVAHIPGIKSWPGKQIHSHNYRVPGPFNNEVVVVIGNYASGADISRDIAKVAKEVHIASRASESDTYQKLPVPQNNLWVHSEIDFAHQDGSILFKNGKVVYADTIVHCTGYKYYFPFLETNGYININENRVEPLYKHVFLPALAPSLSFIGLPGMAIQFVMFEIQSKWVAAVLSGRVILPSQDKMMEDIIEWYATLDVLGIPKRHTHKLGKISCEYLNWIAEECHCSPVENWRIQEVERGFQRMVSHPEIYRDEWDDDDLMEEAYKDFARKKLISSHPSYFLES
The assay is described as follows: Enzymatic activity of heterologously expressed At1g65860 in E. coli spheroplasts. The assay is classed as biochemical. The conditions noted are these: 1 hour at 30° C.; for oxygenation on the sulfur: tested as substrates at 0.1 mM, 1 mM and 10 mM. The method, then: FIG. 3—Enzymatic activity of heterologously expressed At1g65860 in E. coli spheroplasts using the arabinose inducible pBad TOPO® TA Expression system (Invitrogen). 50 μg total E. coli protein were used for each assay and allowed to proceed for 1 hour at 30° C. 4-methylsulfinylbutyl glucosinolate and desulfo-methylsulfinylbutyl glucosinolate production were quantified by HPLC (monitored at 229 nm). Compound identities were confirmed by comparison of both retention times, UV light absorption profiles and mass by LC/MS with those of authentic standards.
At1g65860 pBAD-TOPO constructs and a vector control (empty pBAD-TOPO) were transformed into the E. coli strain TOP10 (Invitrogen). Single colonies were grown overnight in Luria broth (LB) with 100 μg/ml ampicillin. One milliliter of the overnight culture was used to inoculate 100 ml of LB medium supplemented with 100 μg/ml ampicillin and the culture was grown at 37° C., 250 rpm to OD600=0.5, at which time arabinose (final conc. 0.02%) was added. The culture was grown at 28° C., 250 rpm for 16 h.
Following arabinose induction, spheroplasts of E. coli cells were prepared. The culture was chilled on ice, pelleted at 2500 g for 10 min, followed by resuspension by sequential addition of 8.3 ml 200 mM Tris/HCl, pH 7.6, 1.42 g sucrose, 16.7 μL […], 41.7 μL 0.1M phenylmethylsulfonyl fluoride, 33.3 μL lysozyme (50 mg/ml) and finally 8.31 mL ice-cold water with slow stirring. After 30 min incubation at 4° C. with slow stirring, 166 μL 1M Mg(OAc)2 was added and membranes were pelleted at 3000 g for 10 min at 4° C. Pellet was resuspended in 1800 μL 10 mM Tris/HCl pH 7.6/14 mM Mg(OAc)2/60 mM KOAc. The suspension was homogenized in a Potter-Elvehjem followed by the addition of 5 μL RNAse (10 mg/ml) and 5 μL DNAse (5 mg/ml) and slowly stirred for 30 min at 4° C. 235 μL 87% glycerol was added and the spheroplasts were stored at −80° C. for several weeks without loss of activity.
The 100 ul assay solution contained substrate and spheroplasts corresponding to 50 ug total E. coli protein in a 0.1 M Tricine at pH 7.9, 0.25 mM NADPH buffer. The reaction was allowed to proceed for 1 hour at 30° C. and terminated by the addition of 100 μL methanol and centrifuged at 5000 g for 2 min. The supernatant was moved to new tubes followed by lyophilization to dryness and finally redissolved in 50 μL water.
4-methylthiobutyl glucosinolate and desulfo 4-methylthiobutyl glucosinolate were used as substrates with final concentrations in the assay as given in FIG. 3. 4-methylthiobutyl oxime, dihomomethionine, methionine were tested as substrates at 0.1 mM, 1 mM and 10 mM final concentrations. […]

A short description of assay [1]: Activity of FMOs of the invention in E. coli or in seeds using a variety of substrates. Type of assay: biochemical, Arabidopsis thaliana. The conditions noted are these: for S-oxygenation activity: desulfo and intact glucosinolates; for substrate specificity: methylthio glucosinolates in Arabidopsis. The source says: FIG. 11—Heterologous expression of At1g62560 in E. coli using 4MTB as substrate, with an empty vector as control.
FIG. 13—Heterologous expression of At1g62540 in E. coli using 4MTB as substrate, with an empty vector as control.
FIG. 15—Heterologous expression of At1g12140 in E. coli using desulfo-glucosinolates from glucosinolates from Arabidopsis Col-0 seeds as substrate mix.
FIG. 17—Heterologous expression of At1g62570 in E. coli using desulfo-glucosinolates from glucosinolates from Arabidopsis Col-0 seeds as substrate mix, with an empty vector as control.
FIGS. 11-18 show the activity of At1g62560, At1g65860, At1g62540, At1g12140 and At1g62570 in E. coli or in seeds using a variety of substrates.

With `CSCC[C@H](N)C(=O)O` [methionine], the “oxygenation on the sulfur” value at At1g65860 is listed as “No oxygenation on the sulfur”.
Regarding `CSCCCCC(N)C(=O)O` (stereo not shown) [dihomomethionine], on At1g65860, the “oxygenation on the sulfur” value is recorded as “No oxygenation on the sulfur”.
On to `CSCCCC/C(=N/OS(=O)(=O)O)S[C@@H]1O[C@H](CO)[C@@H](O)[C@H](O)[C@H]1O` [4MTB, 4-methylthiobutyl glucosinolate], for which, on At1g65860 (50 μg total E. coli protein, HPLC 229 nm), the “production of 4MSB from 4MTB” value was “production of 4MSB from 4MTB”.
Regarding `CSCCCC/C=N\O` [4-methylthiobutyl oxime], on At1g65860, the “oxygenation on the sulfur” value is reported as “No oxygenation on the sulfur”.

B1: At1g62570: flavin-containing monooxygenase (FMO) from A. thaliana, SEQ ID NO 6 (protein, listed as Arabidopsis thaliana)
chain: MAPAPSPINSQHVAVIGAGAAGLVAARELRREGHTVVVLDREKQVGGLWVYTPETESDELGLDPTRPIVHSSVYKSLRTNLPRECMGYKDFPFVPRGDDPSRDSRRYPSHREVLAYLQDFATEFNIEEMIRFETEVLRVEPVNGKWRVQSKTGGGFSNDEIYDAVVMCCGHFAEPNIAQIPGIESWPGRQTHSHSYRVPDPFKDEVVVVIGNFASGADISRDISKVAKEVHIASRASKSNTFEKRPVPNNNLWMHSEIDTAHEDGTIVFKNGKVVHADTIVHCTGYKYYFPFLETNNYMRVDDNRVEPLYKHIFPPALAPGLSFIGLPAMGLQFYMFEVQSKWVAAVLSGRVTLPSVDEMMDDLKLSYETQEALGIPKRYTHKLGKSQCEYLDWIADLCGFPHVEHWRDQEVTRGYQRLGNQPETFRDEWDDDDLMEEAYEDFARLNLINFHPSRFLESGR
B1: in assay [1], the S-oxygenation activity entry was “S-oxygenation activity” and the substrate specificity entry is reported as “broad specificity towards all methylthio (MT) glucosinolates”.

B2: At1g62540: flavin-containing monooxygenase (FMO) from A. thaliana, SEQ ID NO 8 (protein, listed as Arabidopsis thaliana)
chain: MAPAQNPISSQHVVVIGAGAAGLVAARELSREGHTVVVLEREKEVGGLWIYSPKAESDPLSLDPTRSIVHSSVYESLRTNLPRECMGFTDFPFVPRFDDESRDSRRYPSHMEVLAYLQDFAREFNLEEMVRFEIEVVRVEPVNGKWRVWSKTSGGVSHDEIFDAVVVCSGHYTEPNVAHIPGIKSWPGKQIHSHNYRVPGPFENEVVVVIGNFASGADISRDIAKVAKEVHIASRASEFDTYEKLPVPRNNLWIHSEIDTAYEDGSIVFKNGKVVYADSIVYCTGYKYRFTFLETNGYMNIDENRVEHLYKHVFPPALSPGLSFVGLPSMGIQFVMFEIQSKWVAAVLSRRVTLPTEDKMMEDISAWYASLDAVGIPKRYTHKLGKIQSEYLNWVAEECGCPLVEHWRNQQIVRGYQRLVSHPETYRDEWDDNDLMEEAYEDFARKKLISFHPSHIL
As for B2, in assay [1], the S-oxygenation activity result is listed as “S-oxygenation activity” and the substrate specificity result was “broad specificity towards all methylthio (MT) glucosinolates”.

B3: At1g12140: flavin-containing monooxygenase (FMO) from A. thaliana, SEQ ID NO 10 (protein, listed as Arabidopsis thaliana)
chain: MAPARTRVNSLNVAVIGAGAAGLVAARELRRENHTVVVFERDSKVGGLWVYTPNSEPDPLSLDPNRTIVHSSVYDSLRTNLPRECMGYRDFPFVPRPEDDESRDSRRYPSHREVLAYLEDFAREFKLVEMVRFKTEVVLVEPEDKKWRVQSKNSDGISKDEIFDAVVVCNGHYTEPRVAHVPGIDSWPGKQIHSHNYRVPDQFKDQVVVVIGNFASGADISRDITGVAKEVHIASRSNPSKTYSKLPGSNNLWLHSMIESVHEDGTIVFQNGKVVQADTIVHCTGYKYHFPFLNTNGYITVEDNCVGPLYEHVFPPALAPGLSFIGLPWMTLQFFMFELQSKWVAAALSGRVTLPSEEKMMEDVTAYYAKREAFGQPKRYTHRLGGGQVDYLNWIAEQIGAPPGEQWRYQEINGGYYRLATQSDTFRDKWDDDHLIVEAYEDFLRQKLISSLPSQLLES
As for B3, in assay [1], the S-oxygenation activity result is “S-oxygenation activity” and the substrate specificity result is listed as “mainly converts long-chain (especially octyl)methylthioalkyl-into methylsulfinyl glucosinolates”.
